What all share (test): EC50 of free RNA motif oligo competing protein binding to immobilised probe
Data set [1] concerns the target T1, XAB2 (UniProt Q9HCS7).
T1 sequence: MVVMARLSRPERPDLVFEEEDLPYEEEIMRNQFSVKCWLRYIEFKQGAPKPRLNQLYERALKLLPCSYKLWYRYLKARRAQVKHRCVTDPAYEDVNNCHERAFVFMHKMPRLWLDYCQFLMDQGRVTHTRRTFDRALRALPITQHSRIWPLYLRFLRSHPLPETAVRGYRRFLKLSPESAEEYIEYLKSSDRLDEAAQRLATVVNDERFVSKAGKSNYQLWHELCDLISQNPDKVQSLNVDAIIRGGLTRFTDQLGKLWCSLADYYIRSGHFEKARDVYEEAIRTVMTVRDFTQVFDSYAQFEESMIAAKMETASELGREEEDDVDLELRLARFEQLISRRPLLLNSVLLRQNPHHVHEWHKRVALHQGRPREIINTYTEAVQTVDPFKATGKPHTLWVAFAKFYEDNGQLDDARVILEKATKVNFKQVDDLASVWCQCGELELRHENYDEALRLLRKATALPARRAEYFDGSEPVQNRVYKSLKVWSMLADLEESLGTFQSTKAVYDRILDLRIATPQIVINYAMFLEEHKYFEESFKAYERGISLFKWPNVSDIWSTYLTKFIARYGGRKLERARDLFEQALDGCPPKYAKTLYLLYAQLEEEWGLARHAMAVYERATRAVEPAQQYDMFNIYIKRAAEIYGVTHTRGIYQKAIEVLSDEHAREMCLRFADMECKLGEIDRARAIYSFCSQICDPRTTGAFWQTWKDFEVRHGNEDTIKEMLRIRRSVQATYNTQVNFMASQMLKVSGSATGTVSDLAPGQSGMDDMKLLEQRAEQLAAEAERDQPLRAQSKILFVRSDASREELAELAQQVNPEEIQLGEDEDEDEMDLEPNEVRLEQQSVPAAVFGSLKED
The method, boiled down:
(§1)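 To obtain EC50, data were fitted with a four-parameter log-logistic model; Kd was then EC50 multiplied by a protein-dependent depletion factor. Beforehand, free RNA oligos (0 nM to 30 μM) were pre-incubated with HEK293-FT lysate (2.5 mg protein/well) for 1 h at 4°C. The lysate then spent 30 min at 4°C with the same 5′-amino-C6 oligos coupled to NHS-Sepharose beads, and bound proteins were quantified by label-free LC-MS/MS, normalised to the control.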

Data set [2] has as its target T2, CPSF1 (UniProt Q10570).
T2 sequence: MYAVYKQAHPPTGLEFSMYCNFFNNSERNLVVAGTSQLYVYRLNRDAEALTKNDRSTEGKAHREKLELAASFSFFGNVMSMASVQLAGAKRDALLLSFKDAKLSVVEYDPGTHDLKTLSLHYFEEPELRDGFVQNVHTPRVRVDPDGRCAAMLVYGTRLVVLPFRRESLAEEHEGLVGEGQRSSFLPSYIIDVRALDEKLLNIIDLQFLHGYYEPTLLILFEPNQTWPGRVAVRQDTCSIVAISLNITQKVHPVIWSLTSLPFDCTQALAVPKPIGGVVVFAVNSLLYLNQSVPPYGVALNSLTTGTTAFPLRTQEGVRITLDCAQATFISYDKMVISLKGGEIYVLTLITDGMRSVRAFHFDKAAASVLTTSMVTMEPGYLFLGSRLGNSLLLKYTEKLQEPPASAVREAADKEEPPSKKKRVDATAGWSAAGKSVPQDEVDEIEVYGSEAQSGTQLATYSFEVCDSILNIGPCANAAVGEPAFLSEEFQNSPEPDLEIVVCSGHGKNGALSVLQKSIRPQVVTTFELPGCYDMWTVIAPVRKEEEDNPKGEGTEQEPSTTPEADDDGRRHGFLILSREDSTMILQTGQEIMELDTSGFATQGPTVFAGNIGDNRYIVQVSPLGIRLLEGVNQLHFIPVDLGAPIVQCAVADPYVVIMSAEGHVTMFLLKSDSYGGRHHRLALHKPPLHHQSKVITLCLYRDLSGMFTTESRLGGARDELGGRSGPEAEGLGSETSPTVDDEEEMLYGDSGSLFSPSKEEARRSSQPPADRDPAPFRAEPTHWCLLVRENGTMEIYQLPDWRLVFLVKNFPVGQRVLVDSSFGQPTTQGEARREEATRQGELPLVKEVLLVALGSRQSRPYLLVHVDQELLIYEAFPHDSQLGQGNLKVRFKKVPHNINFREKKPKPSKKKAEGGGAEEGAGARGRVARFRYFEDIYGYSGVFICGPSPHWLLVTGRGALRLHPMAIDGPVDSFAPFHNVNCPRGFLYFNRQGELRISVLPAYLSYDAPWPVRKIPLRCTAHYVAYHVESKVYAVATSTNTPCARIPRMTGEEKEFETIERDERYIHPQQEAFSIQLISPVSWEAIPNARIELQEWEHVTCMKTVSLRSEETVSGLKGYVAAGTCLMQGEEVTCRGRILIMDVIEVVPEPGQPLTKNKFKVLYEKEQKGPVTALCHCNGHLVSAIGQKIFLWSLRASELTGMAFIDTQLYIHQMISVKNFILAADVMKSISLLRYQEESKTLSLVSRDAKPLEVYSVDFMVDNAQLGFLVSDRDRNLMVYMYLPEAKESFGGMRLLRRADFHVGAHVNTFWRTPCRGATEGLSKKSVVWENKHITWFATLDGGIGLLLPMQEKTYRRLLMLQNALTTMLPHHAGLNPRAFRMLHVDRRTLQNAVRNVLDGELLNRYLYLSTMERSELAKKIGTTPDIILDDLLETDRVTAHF
The method, boiled down: as §1

Data set [3] addresses T3, RBMS3 (UniProt Q6XE24).
T3 sequence: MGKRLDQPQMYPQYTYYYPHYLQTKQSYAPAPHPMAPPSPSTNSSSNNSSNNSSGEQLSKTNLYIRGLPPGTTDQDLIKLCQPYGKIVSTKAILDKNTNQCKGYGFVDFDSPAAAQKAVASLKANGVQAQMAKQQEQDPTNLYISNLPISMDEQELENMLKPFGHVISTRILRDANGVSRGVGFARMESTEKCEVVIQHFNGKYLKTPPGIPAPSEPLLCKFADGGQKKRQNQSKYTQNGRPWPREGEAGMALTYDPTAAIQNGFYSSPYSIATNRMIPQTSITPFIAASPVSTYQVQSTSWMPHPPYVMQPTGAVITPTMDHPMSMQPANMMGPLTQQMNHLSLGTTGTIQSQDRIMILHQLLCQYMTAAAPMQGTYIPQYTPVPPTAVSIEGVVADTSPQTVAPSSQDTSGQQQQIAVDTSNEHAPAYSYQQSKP
The method, boiled down: as §1

On to AAUAAA, for which the figures for the EC50 in data set [1], in data set [2] and in data set [3] were 1370 nM, 64.4 nM and 1180 nM, respectively.
Consider UAUUUAU, for which the results for the EC50 in data set [1], in data set [2] and in data set [3] were 601 nM, 1710 nM and 279 nM, respectively.

These data come from the supplement of paper PMC6379048.
